Four molecules from US10654939 (BEIJING MABWORKS BIOTECH, dated 2020) can be followed below.

Like-named read-outs stand apart in the source and are kept apart here.

The target in assay [1] is T1, recombinant human CD40 (ECD)-his (human, UniProt P25942 21-193).
T1 construct: Bought protein; also called hCD40(ECD)-his; TNFRSF5
As to the kind of experiment: SPR (Biacore 8K), hCD40(ECD)-his coupled to chip, antibody injected. How it is done: SPR assays were used to determine the binding affinity of the chimetic or humanized anti-CD40 antibodies to human CD40 with the BIAcore™ 8K instrument (GE Life Sciences). Briefly, 100-200 response units (RU) of human CD40 (ECD)-his protein (Sino Biological, CN, Cat #: 10774-H08H) were coupled to CM5 biosensor chips (Cat #: BR-1005-30, GE Life Sciences), followed by blocking of un-reacted groups with 1M ethanolamine. Serially diluted antibodies at concentrations ranging from […] were injected into the SPR running buffer (HBS-EP buffer, pH7.4, GE Life Sciences; US; Cat #: BR-1006-69) at 30 μL/minute. The binding capacity was calculated with the RUs of blank controls subtracted. The association rate (k_a) and dissociation rate (k_d) were calculated using the one-to-one Langmuir binding model (BIA Evaluation Software, GE Life Sciences). The equilibrium dissociation constant K_D was calculated as the k_d/k_a ratio.
(In general: SPR reads the build-up and loss of mass on a sensor chip optically.)

Assay [2] addresses T2, CD40 ECD Truncant 3 (amino acid 145-193) with mFc-tag (human).
T2 construct: mFc-tag at the C terminus; also called CRD4
Kind of assay: ELISA on recombinant CD40 ECD proteins with mFc tag (Example 16); antibody concentration not given.

Assay [3] deals with T3, CD40 ECD Truncant 2 (amino acid 104-193) with mFc-tag (human).
T3 construct: mFc-tag at the C terminus; also called CRD3/4
Described as above.

Assay [4] has as its target T4, CD40 ECD Truncant 1 (amino acid 61-193) with mFc-tag (human).
T4 construct: mFc-tag at the C terminus; also called CRD2/3/4
The description is as above.

The target of assay [5] is T5, CD40 ECD Truncant 4 (amino acid 38-193) with mFc-tag (human).
T5 construct: Truncated CRD1; mFc-tag at the C terminus; also called CRD delta1/2/3/4
Described as above.

The target of assay [6] is Full-length CD40 ECD (amino acid 21-193, human CD40) with mFc-tag (human). The description is as above.
Assay [7] deals with T6, CD40 ECD Truncant 5 (amino acid 21-37 & 61-193) with mFc-tag (human).
T6 construct: Truncated CRD1; mFc-tag at the C terminus; also called CRD delta1/2/3/4
Described as above.

Assay [8] has as its target T7, rhesus CD40 expressed on HEK293A cells (rhesus monkey, UniProt P25942 21-277 (human entry)).
T7 construct: also called HEK293A/rhesusCD40
T7 chain: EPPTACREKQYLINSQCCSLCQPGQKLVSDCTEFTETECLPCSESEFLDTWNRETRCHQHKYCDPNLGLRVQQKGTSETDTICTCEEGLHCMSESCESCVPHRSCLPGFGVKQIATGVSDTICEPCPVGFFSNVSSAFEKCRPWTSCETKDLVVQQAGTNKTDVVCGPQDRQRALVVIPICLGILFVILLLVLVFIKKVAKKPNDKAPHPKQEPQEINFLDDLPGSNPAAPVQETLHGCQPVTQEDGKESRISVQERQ
Kind of assay: FACS on HEK293A/rhesus CD40 cells, serially diluted antibody (Example 14, protocol of Example 5). How it is done: Example 5 Mouse Anti-CD40 Monoclonal Antibodies Bound to Human and Rhesus CD40 Expressed on HEK293A Cells To further determine whether anti-CD40 antibodies bound to human, monkey or mouse CD40 expressed on HEK293A cells, a cell-based binding assay by FACS was performed using the HEK293A cells stably overexpressing human, monkey or mouse CD40 as generated in Example 1, respectively. Briefly, 10^5 HEK293A cells were seeded into each well of the 96-well plates and serially diluted anti-CD40 antibodies were added to the plates. After incubated at 4° C. for 1 hour, plates were washed 3 times with PBST. Then, an APC coupled Goat Anti-Mouse IgG (BioLegen, US, Cat #: 405308) diluted 500× was added to the plates. After incubation at 4° C. for 1 hour, the plates were washed with PBS for 3 times and then cell fluorescence was monitored using a FACS machine (BD).
The chimeric and humanized anti-CD40 antibodies were further characterized for their ability of binding to HEK293A/humanCD40 cells and HEK293A/rhesus CD40 cells, following the protocols described in Example 5. They were also tested for their ability to activate CD40 signaling in HEK-Blue assay, and to promote dendritic cell maturation, following the protocols in Example 7 and Example 9, respectively, the dendritic cells collected form three healthy human donors. IL-12(p40) secretion by the dendritic cells was measured by using human IL12(p40) ELISA kit (BD, US, Cat #: 551116) following themanufactor's instruction.

Assay [9] deals with T8, CD40 ECD Mutant 1 (amino acid 21-193, R7A/E8A) with mFc-tag (human).
T8 construct: Signal peptide left out
Kind of assay: ELISA on recombinant CD40 ECD proteins with mFc tag (Example 16); antibody concentration not given. On the technique in general: In an ELISA, binding on a coated surface is turned into a signal by an enzyme label.

The target of assay [10] is T1, recombinant human CD40 (ECD)-his. Kind of assay: ELISA on coated recombinant TNFRSF proteins, serially diluted antibody (Example 17).
The target is the same in assay [11]. Described as above. The source holds these as a separate data set.
Assay [12] concerns the target T9, mouse CD40 expressed on HEK293A cells (mouse, UniProt P27512 20-289).
T9 construct: also called HEK293A/mouseCD40
As to the kind of experiment: FACS, HEK293A/mouseCD40 cells. (In general: Flow cytometry measures light scatter and fluorescence of single cells or particles in a stream.)

T8 sequence (chain, as listed by the source limits assumed, stated change not applied): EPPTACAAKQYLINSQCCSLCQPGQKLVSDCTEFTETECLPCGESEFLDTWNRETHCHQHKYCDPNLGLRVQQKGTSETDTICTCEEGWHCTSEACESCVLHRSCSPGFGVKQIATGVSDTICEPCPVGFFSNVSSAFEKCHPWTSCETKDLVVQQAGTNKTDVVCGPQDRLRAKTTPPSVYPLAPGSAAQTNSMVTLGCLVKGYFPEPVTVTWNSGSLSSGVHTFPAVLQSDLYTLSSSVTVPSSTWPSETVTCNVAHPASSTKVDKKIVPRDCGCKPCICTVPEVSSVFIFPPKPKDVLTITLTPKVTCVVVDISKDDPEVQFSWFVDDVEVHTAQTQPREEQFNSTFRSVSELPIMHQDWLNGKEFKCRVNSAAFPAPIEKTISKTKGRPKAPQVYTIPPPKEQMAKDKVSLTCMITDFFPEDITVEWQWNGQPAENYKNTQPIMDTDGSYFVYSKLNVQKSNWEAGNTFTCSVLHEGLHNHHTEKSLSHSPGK
T6 sequence (chain, as listed by the source limits assumed): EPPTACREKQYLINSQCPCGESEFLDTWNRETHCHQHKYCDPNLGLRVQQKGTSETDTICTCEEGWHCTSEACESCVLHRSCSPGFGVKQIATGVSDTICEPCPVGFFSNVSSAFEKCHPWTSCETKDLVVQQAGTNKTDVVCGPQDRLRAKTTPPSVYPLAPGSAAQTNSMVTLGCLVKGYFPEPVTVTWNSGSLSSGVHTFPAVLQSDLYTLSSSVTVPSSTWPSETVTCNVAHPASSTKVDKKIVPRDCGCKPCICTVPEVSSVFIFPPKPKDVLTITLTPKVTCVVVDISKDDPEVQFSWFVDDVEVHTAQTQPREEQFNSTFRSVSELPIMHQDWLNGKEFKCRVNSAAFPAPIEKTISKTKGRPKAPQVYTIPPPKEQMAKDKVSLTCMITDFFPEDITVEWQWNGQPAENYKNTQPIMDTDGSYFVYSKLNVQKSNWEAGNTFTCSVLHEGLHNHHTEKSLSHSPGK
T4 sequence (chain, as listed by the source limits assumed): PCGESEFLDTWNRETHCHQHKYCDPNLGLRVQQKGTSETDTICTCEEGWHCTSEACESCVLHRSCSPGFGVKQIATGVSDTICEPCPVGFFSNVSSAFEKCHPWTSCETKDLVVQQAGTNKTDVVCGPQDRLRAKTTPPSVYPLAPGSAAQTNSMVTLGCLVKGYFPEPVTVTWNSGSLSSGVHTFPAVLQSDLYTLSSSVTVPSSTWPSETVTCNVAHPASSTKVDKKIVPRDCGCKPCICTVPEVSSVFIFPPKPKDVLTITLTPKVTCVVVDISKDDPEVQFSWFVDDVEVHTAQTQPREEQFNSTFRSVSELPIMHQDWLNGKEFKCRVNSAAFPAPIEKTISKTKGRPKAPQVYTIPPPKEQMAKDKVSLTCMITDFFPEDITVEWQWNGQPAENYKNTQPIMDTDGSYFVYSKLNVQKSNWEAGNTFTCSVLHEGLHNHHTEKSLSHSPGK
T3 sequence (chain, as listed by the source limits assumed): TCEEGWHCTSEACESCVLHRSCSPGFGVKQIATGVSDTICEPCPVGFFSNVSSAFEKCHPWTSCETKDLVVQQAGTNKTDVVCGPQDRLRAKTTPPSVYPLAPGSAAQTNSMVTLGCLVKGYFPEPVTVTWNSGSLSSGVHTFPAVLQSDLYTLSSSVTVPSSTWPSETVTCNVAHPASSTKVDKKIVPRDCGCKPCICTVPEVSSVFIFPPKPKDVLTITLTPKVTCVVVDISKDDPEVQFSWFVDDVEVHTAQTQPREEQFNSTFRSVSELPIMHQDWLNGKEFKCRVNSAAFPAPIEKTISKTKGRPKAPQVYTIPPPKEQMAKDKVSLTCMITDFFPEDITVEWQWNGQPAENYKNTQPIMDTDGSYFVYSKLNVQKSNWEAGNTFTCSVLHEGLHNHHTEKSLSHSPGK
T5 sequence (chain, as listed by the source limits assumed): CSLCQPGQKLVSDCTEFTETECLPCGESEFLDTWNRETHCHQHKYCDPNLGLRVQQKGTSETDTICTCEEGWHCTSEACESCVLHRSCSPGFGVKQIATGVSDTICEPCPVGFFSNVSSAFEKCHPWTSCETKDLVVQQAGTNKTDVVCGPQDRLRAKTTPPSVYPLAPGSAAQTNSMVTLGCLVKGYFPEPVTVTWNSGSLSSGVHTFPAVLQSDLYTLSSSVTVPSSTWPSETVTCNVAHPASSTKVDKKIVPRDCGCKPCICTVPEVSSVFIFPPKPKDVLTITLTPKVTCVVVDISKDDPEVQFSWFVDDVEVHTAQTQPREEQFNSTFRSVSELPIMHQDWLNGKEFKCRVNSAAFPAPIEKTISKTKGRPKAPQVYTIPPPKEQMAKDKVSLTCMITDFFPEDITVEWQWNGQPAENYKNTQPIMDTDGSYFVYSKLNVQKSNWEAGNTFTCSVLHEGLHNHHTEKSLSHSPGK
T2 sequence (chain, as listed by the source limits assumed): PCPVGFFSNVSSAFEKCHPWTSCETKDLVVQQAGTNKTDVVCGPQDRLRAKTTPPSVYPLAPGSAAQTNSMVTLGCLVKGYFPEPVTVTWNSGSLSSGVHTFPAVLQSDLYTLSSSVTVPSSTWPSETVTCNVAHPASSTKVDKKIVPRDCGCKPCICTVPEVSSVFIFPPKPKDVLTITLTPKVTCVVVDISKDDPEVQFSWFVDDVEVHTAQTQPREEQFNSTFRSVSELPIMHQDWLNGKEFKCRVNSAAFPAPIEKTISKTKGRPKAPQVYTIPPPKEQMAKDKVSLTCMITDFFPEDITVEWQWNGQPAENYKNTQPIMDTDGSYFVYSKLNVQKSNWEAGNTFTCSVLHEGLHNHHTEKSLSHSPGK
T9 sequence (P27512 20-289 limits assumed): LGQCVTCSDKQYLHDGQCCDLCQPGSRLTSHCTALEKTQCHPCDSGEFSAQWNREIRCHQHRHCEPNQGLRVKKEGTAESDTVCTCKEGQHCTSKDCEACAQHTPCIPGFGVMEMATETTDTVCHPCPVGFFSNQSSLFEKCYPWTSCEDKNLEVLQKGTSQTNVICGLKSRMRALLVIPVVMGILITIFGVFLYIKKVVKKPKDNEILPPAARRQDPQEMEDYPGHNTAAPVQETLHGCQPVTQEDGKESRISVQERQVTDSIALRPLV

B1: 13A2-VH3VL2 (antibody, human IgG2, kappa, V domains shown)
VH: QVQLQESGPGLVKPSDTLSLTCAVSGYSITTNYYWNWIRQPPGNKLEWMGYINYDGSNNYNPSLKNRITISVDTSKNQFSLKLSSVTAVDTAVYYCARLDYWGQGTLVTVSS
VL: DVVLTQSPLSLPVTLGQPASISCRSSQSLENSNGNTFLNWFQQRPGQSPRLLIYKVSNRFSGVPDRFSGSGSGTDFTLKISRVEAEDVGVYYCLQVTHVPFTFGQGTKLEIKR
notes: Humanized, human IgG2/kappa
As for B1, in assay [1], the Kd (in general, the equilibrium constant for the complex coming apart) amounted to 2.93 nM. The dissociation rate constant (koff) (usually the rate constant with which the complex falls apart) in assay [1] worked out at 0.00242 s⁻¹. Further, in assay [1], the kon (as a rule, the second-order rate constant of association) was 825000 M⁻¹ s⁻¹. For the same molecule, the binding result in assay [2] is recorded as “no binding”; in assay [3], “no binding”; in [4], “no binding”; in assay [5] it was “no binding”; in assay [6] it was “binds”; in [7] it was “no binding”. Moreover, the binding result in assay [8] and in assay [9] was “binds” throughout.

B2: 13A2-VH3VL3 (antibody, human IgG2, kappa, V domains shown)
VH: QVQLQESGPGLVKPSDTLSLTCAVSGYSITTNYYWNWIRQPPGNKLEWMGYINYDGSNNYNPSLKNRITISVDTSKNQFSLKLSSVTAVDTAVYYCARLDYWGQGTLVTVSS
VL: DVVLTQSPLSLPVTLGQPASISCRSSQSLENSNGNTFLNWFQQRPGQSPRLLIYKVSNRFSGVPDRFSGSGSGTDFTLKISRVEAEDVGVYFCLQVTHVPFTFGSGTKLEIKR
notes: Humanized, human IgG2/kappa
As to B2, in assay [10], the EC50 (read off the curve) (commonly the concentration that produces a half-maximal response) was roughly 0.02 µg/mL. The equilibrium dissociation constant (Kd) in assay [1] was 7.68 nM. Further, the koff in assay [1] is 0.00459 s⁻¹. The kon in assay [1] is 598000 M⁻¹ s⁻¹. The binding result in [2] is on record as “no binding”; in assay [3], “no binding”; in assay [4], “no binding”; in assay [5], “no binding”; in [6], “binds”; in assay [7], “no binding”. In addition, the binding result in [8] and in assay [9] was “binds” in each case.

B3: 7B4-VH2VL2 (antibody, V domains shown)
VH: QVQLQESGPGLVKPSDTLSLTCAVSGYSITTNYYWNWIRQPPGKGLEWMGYIKYDGSNNYNPSLKNRITISVDTSKNQFSLKLSSVTAVDTAVYYCARLDYWGQGTLVTVSS
VL: DVVLTQSPLSLPVTLGQPASISCRSSQSLENSNGNTFLNWFQQRPGQSPRLLIYKVSNRFSGVPDRFSGSGSGTDFTLKISRVEAEDVGVYYCLQVTHVPFTFGQGTKLEIKR
notes: Humanized, human IgG2/kappa; also called 7B4H2L2
Turning to B3, the “EC50 (read off the curve)” value in [11] is roughly 0.02 µg/mL. Also, in assay [1], the dissociation constant (Kd) is 2.91 nM, the koff was determined as 0.00581 s⁻¹ and the kon is 2e+06 M⁻¹ s⁻¹. Moreover, in assay [8], the “EC50 (read off the curve)” value was roughly 0.2 µg/mL.

B4: chimeric 13A2 antibody (antibody, human IgG2, kappa, V domains shown)
VH: EVKLEQSGPGLVKPSQSLSLTCSVTGYSITTNYYWNWIRQFPGNKLEWMGYINYDGSNNYNPSLKNRISITRDTSKNQFFLKLNSVTTEDTATYYCARLDYWGQGTSVTVSS
VL: DIVMTQSPLSLPVSLGDQASISCRSSQSLENSNGNTFLNWFLQKPGQSPQLLIYKVSNRFSGVLDRFSGTGSGTDFTLTISRVEAEDLGVYFCLQVTHVPFTFGSGTKLEIKR
notes: Mouse variable regions with human IgG2/kappa constant regions
As to B4, in [1], the Kd was found to be 3.58 nM. In [1], the koff came out at 0.00173 s⁻¹. For the same molecule, the kon in assay [1] worked out at 484000 M⁻¹ s⁻¹. Also, the binding result in assay [2] is recorded as “no binding”; in assay [3] it was “no binding”; in [4], “no binding”; in assay [5], “no binding”; in assay [6], “binds”; in assay [7], “no binding”. Also, the values for the binding result in assay [9] and in assay [12] were “binds” and “no binding”, respectively.
